From publication PMC7060200, “Selective Binding of HSC70 and its Co-Chaperones to Structural Hotspots on CFTR” (Scientific Reports, 2020)

Key:
[1] = biological target: CFTR peptide 1097-L, biotinylated (library form) (UniProt P13569); assay: ELISA; titration of increasing concentrations of chaperone on immobilised biotinylated peptide; HSC70 with ATP; apparent Kd from linearised binding curves
[2] = biological target: Fluorescent peptide FAM-1092-S (UniProt P13569); assay: other fluorescence titration; 0.5 μM FAM-1092-S with varying concentrations of chaperone, 45 min; HSC70 in buffer G, DJA1 and DJA2 in buffer H; excitation 492 nm, emission 520 nm; one site total binding fit
Chain of Fluorescent peptide FAM-1092-S (P13569 whole entry, looked up, tested part not stated): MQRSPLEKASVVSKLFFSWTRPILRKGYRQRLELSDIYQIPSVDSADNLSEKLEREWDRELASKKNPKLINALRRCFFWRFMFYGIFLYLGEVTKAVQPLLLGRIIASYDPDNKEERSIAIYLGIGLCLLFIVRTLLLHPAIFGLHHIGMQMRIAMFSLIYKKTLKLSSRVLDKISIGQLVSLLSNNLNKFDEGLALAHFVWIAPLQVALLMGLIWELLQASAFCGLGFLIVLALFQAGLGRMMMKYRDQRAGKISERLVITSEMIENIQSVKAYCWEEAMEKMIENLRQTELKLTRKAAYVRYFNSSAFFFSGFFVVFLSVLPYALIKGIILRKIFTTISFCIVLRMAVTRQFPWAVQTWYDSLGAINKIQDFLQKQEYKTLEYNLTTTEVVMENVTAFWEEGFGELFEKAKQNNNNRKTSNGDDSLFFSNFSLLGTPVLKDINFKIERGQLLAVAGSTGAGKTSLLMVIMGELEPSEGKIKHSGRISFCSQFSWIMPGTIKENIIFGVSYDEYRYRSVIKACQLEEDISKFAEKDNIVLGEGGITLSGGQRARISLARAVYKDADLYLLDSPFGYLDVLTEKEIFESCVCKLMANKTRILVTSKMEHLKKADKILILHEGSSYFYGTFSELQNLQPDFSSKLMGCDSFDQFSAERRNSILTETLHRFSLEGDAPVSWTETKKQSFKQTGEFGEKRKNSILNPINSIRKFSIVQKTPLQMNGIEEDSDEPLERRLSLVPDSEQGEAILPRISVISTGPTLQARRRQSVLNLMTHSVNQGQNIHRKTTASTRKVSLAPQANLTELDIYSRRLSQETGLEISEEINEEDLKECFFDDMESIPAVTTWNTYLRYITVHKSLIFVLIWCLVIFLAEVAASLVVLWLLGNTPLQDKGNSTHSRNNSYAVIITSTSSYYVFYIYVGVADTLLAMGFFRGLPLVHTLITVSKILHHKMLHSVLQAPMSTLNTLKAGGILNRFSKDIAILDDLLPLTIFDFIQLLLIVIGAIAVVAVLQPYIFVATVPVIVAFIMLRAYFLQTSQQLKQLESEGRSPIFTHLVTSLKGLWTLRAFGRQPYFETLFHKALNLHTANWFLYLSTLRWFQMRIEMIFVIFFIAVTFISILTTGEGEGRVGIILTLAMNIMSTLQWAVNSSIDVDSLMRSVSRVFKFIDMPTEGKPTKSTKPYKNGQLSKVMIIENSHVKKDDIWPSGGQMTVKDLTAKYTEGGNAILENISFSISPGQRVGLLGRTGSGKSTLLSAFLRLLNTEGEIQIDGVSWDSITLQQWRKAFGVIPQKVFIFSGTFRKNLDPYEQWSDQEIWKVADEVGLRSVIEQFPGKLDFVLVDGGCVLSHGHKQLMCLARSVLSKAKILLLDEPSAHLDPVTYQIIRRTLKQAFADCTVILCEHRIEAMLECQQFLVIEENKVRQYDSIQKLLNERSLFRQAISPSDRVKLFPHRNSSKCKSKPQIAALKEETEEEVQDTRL

[3] = biological target: DNAJA1 (DJA1), His-tagged (UniProt P31689); assay: ELISA; competition: 1 μM chaperone mixed with soluble peptide (titrated up to 100 μM, or fixed 100 μM in the screens) and bound to immobilised 1097-L; Kd of the competing peptide from linearised competition curves
[4] = biological target: DNAJA2 (DJA2), His-tagged (UniProt O60884); assay: as above
Chain of DNAJA2 (DJA2), His-tagged (UniProt O60884) (O60884 whole entry): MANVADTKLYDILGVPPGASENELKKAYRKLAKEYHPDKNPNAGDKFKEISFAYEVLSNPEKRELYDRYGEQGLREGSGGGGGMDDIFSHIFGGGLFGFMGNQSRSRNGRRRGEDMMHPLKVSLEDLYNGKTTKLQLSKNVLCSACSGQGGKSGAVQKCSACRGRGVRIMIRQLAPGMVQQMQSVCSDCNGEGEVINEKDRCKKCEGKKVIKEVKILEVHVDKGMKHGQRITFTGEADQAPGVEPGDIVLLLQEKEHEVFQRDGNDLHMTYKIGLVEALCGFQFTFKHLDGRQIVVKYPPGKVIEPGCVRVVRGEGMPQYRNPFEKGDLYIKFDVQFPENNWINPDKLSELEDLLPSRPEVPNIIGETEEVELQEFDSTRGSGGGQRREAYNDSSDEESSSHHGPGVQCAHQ

[5] = biological target: HSC70 (HSPA8), His-tagged (UniProt P11142); assay: as above
Chain of HSC70 (HSPA8), His-tagged (UniProt P11142) (P11142 whole entry): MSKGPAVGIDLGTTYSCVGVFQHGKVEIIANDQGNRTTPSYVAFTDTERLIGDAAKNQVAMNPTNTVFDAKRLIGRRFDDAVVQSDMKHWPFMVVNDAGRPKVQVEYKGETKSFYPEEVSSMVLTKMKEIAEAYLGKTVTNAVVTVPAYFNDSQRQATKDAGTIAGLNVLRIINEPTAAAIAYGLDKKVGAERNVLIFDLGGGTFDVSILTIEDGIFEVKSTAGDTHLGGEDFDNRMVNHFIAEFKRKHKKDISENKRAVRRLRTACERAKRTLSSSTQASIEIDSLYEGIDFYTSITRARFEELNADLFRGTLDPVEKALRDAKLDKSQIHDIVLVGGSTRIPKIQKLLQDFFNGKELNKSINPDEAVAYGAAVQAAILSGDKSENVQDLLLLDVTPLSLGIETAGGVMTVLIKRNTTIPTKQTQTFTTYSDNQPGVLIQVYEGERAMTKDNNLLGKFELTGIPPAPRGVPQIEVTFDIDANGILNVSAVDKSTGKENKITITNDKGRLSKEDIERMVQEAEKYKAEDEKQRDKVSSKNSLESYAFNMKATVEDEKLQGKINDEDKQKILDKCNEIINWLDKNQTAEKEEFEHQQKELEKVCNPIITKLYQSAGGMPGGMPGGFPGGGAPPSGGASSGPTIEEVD

Chain of CFTR peptide 1092-S (P13569 whole entry, looked up, tested part not stated): as the sequence (P13569 whole entry, looked up, tested part not stated) above
Chain of DNAJA2 (DJA2), His-tagged (from UniProt O60884 1-412) (natural protein) (O60884 whole entry): as the sequence (O60884 whole entry) above
Chain of HSC70 (HSPA8), His-tagged (from UniProt P11142 1-646) (natural protein) (P11142 whole entry): as the sequence (P11142 whole entry) above

Row | Substance | Kd [1] [nM] | Kd [2] [nM] | Kd [3] [nM] | Kd [4] [nM] | Kd [5] [nM]
1 | DNAJA1 (DJA1), His-tagged (from UniProt P31689 1-397) (natural protein) | 167 | 3970 | – | – | –
2 | HSC70 (HSPA8), His-tagged (from UniProt P11142 1-646) (natural protein) | 58 | 6170 | – | – | –
3 | CFTR peptide 1097-L, soluble unmodified (from UniProt P13569 1090-1104) | – | – | 2430 | 585 | 602

Now from value to substance:

Row | Kd [1] [nM] | Kd [2] [nM] | Kd [3] [nM] | Kd [4] [nM] | Kd [5] [nM] | Substance
4 | 75 | 8460 | – | – | – | DNAJA2 (DJA2), His-tagged (from UniProt O60884 1-412) (natural protein)
5 | – | – | 5470 | 2620 | 1260 | CFTR peptide 1092-S (from UniProt P13569 1088-1096)
